Consider six substances from article PMC11500688.

For experiment [1], the target named is CrCFAP410-CTD mutant A219E (C. reinhardtii). Description: SEC-MALS; static light scattering coupled to SEC; 50 μl at 2 mg/ml on Superdex S-200 10/300 GL; 20 mM HEPES pH 7.5, 100 mM NaCl, 1 mM DTT, 1% glycerol; Mini-DAWN Treos. In general terms: Size exclusion chromatography separates by hydrodynamic size, large species first.
Experiment [2] concerns the target CrCFAP410-CTD, C-terminal domain of Chlamydomonas reinhardtii CFAP410, wild type (C. reinhardtii). Described as above.
Experiment [3] has the same target. Kind of experiment: crystal structure; synthetic CTD polypeptides; TbCFAP410-CTD in 2.0 M (NH4)2SO4, 5% iso-propanol, 4°C; HsCFAP410-CTD in 1.5 M NaCl, 10% ethanol, 22°C; CrCFAP410-CTD in 0.02 M CaCl2, 0.1 M sodium acetate pH 5.0, 30% MPD, 4°C.
Experiment [4] concerns the target CrCFAP410-CTD mutant A219E. Kind of experiment: static light scattering (SLS). The following applies: parent: 15.62.
In experiment [5] the target is CrCFAP410-CTD mutant L224P. Description: static light scattering (SLS). The following applies: parent: 15.62.
Experiment [6] addresses HsCFAP410-CTD, C-terminal domain of Homo sapiens cilia- and flagella-associated protein 410, wild type (human) (UniProt O43822). Kind of experiment: crystal structure; synthetic CTD polypeptides; TbCFAP410-CTD in 2.0 M (NH4)2SO4, 5% iso-propanol, 4°C; HsCFAP410-CTD in 1.5 M NaCl, 10% ethanol, 22°C; CrCFAP410-CTD in 0.02 M CaCl2, 0.1 M sodium acetate pH 5.0, 30% MPD, 4°C.
The target in experiment [7] is TbCFAP410-CTD, C-terminal domain of Trypanosoma brucei CFAP410, wild type (T. brucei). Described as above.

As a reminder, the stoichiometry N is the number of molecules, sites or subunits per partner or assembly. In experiment [1], “CrCFAP410-CTD mutant A219E (domain or fragment)” showed a stoichiometry N of 2.

Regarding “CrCFAP410-CTD, C-terminal domain of Chlamydomonas reinhardtii CFAP410, wild type (domain or fragment)”, the stoichiometry N in experiment [2] and in experiment [3] was 4 in each case. Take “CrCFAP410-CTD, C-terminal domain of Chlamydomonas reinhardtii CFAP410, wild type A219E”: the other: molecular weight (SLS) in experiment [4] was determined as 8.35 kDa. Turning to “CrCFAP410-CTD, C-terminal domain of Chlamydomonas reinhardtii CFAP410, wild type L224P”, the other: molecular weight (SLS) in experiment [5] was determined as 4.16 kDa. “HsCFAP410-CTD, C-terminal domain of Homo sapiens cilia- and flagella-associated protein 410, wild type (from UniProt O43822 212-246) (domain or fragment)”: the stoichiometry N in experiment [6] is 4. “TbCFAP410-CTD, C-terminal domain of Trypanosoma brucei CFAP410, wild type (domain or fragment)” yielded a stoichiometry N in experiment [7] of 4.
